Experimental data from PMC6797804, “Histone H3K23-specific acetylation by MORF is coupled to H3K14 acylation” (Nature Communications, 2019).

System: promoters of target genes in 293T cells
Assay: ChIP in transfected 293T cells (FLAG-MORFN WT or F287A)
Assay type: cell-based
Description: Chromatin preparation from MEF, U2OS (ATCC HTB-96) and 293T cells were done as previously described. […] Next, 50 μl of Protein G Dynabeads for FLAG ChIP or 25 μl of Protein A Dynabeads was added to each sample and incubated for 4 h at 4 °C. The beads were washed extensively and eluted with 1% SDS and 0.1 M NaHCO3. Cross-linked samples were reversed by heating overnight at 65 °C in the presence of 0.2 M NaCl. Samples were then treated with RNase A and proteinase K for 2 h, and DNA was recovered by phenol-chloroform and ethanol precipitation. Quantitative real-time PCR corrected for primer efficiencies in the linear range were performed using SYBR Green I (Roche) on a LightCycler 480 (Roche).

[1] = corrected for total H3, two independent experiments

B1: FLAG-MORF F287A: FLAG-tagged MORFN F287A mutant defective in histone H3 binding, expressed in 293T cells (protein, UniProt Q8WYB5 1-716, looked up, variant F287A)
chain: MVKLANPLYTEWILEAIQKIKKQKQRPSEERICHAVSTSHGLDKKTVSEQLELSVQDGSVLKVTNKGLASYKDPDNPGRFSSVKPGTFPKSAKGSRGSCNDLRNVDWNKLLRRAIEGLEEPNGSSLKNIEKYLRSQSDLTSTTNNPAFQQRLRLGAKRAVNNGRLLKDGPQYRVNYGSLDGKGAPQYPSAFPSSLPPVSLLPHEKDQPRADPIPICSFCLGTKESNREKKPEELLSCADCGSSGHPSCLKFCPELTTNVKALRWQCIECKTCSACRVQGRNADNMLACDSCDRGFHMECCDPPLSRMPKGMWICQVCRPKKKGRKLLHEKAAQIKRRYAKPIGRPKNKLKQRLLSVTSDEGSMNAFTGRGSPGRGQKTKVCTTPSSGHAASGKDSSSRLAVTDPTRPGATTKITTTSTYISASTLKVNKKTKGLIDGLTKFFTPSPDGRRSRGEIIDFSKHYRPRKKVSQKQSCTSHVLATGTTQKLKPPPSSLPPPTPISGQSPSSQKSSTATSSPSPQSSSSQCSVPSLSSLTTNSQLKALFDGLSHIYTTQGQSRKKGHPSYAPPKRMRRKTELSSTAKSKAHFFGKRDIRSRFISHSSSSSWGMARGSIFKAIAHFKRTTFLKKHRMLGRLKYKVTPQMGTPSPGKGSLTDGRIKPDQDDDTEIKINIKQESADVNVIGNKDVVTEEDLDVFKQAQELSWEKIECESGVEDC
modifications: residues 1-716 FLAG tag
Compared to WT FLAG-MORF, two independent experiments
  association with promoters (FLAG ChIP): decreased association
[1]
  H3K14ac level on promoters (ChIP): H3K14ac level was unaffected by the mutation
  H3K23ac level on promoters (ChIP): expression of WT FLAG-MORF but not F287A mutant increases H3K23ac level

B2: WT FLAG-MORF: FLAG-tagged wild-type MORFN (residues 1–716 of MORF) expressed in 293T cells (protein, UniProt Q8WYB5 1-716, looked up, fragment)
chain: MVKLANPLYTEWILEAIQKIKKQKQRPSEERICHAVSTSHGLDKKTVSEQLELSVQDGSVLKVTNKGLASYKDPDNPGRFSSVKPGTFPKSAKGSRGSCNDLRNVDWNKLLRRAIEGLEEPNGSSLKNIEKYLRSQSDLTSTTNNPAFQQRLRLGAKRAVNNGRLLKDGPQYRVNYGSLDGKGAPQYPSAFPSSLPPVSLLPHEKDQPRADPIPICSFCLGTKESNREKKPEELLSCADCGSSGHPSCLKFCPELTTNVKALRWQCIECKTCSACRVQGRNADNMLFCDSCDRGFHMECCDPPLSRMPKGMWICQVCRPKKKGRKLLHEKAAQIKRRYAKPIGRPKNKLKQRLLSVTSDEGSMNAFTGRGSPGRGQKTKVCTTPSSGHAASGKDSSSRLAVTDPTRPGATTKITTTSTYISASTLKVNKKTKGLIDGLTKFFTPSPDGRRSRGEIIDFSKHYRPRKKVSQKQSCTSHVLATGTTQKLKPPPSSLPPPTPISGQSPSSQKSSTATSSPSPQSSSSQCSVPSLSSLTTNSQLKALFDGLSHIYTTQGQSRKKGHPSYAPPKRMRRKTELSSTAKSKAHFFGKRDIRSRFISHSSSSSWGMARGSIFKAIAHFKRTTFLKKHRMLGRLKYKVTPQMGTPSPGKGSLTDGRIKPDQDDDTEIKINIKQESADVNVIGNKDVVTEEDLDVFKQAQELSWEKIECESGVEDC
modifications: FLAG tag
notes: FLAG-tagged wild-type MORFN (residues 1–716 of MORF) expressed in 293T cells
[1]
  H3K23ac level on promoters (ChIP): increases H3K23ac level on these promoters
